# In article PMC9250297:
# Columns and labels:
# [1] = target: HaloTag7 C61S single mutant (UniProt P0A3G2); assay: SDS-PAGE gel shift assay
# [2] = target: HaloTag7 C262S single mutant (UniProt P0A3G2); assay: SDS-PAGE gel shift assay
stoichiometry N [1],stoichiometry N [2],Substance
2,–,HaloTag7 C61S single mutant (from UniProt P0A3G2 1-293) (enzyme)
–,2,HaloTag7 C262S single mutant (from UniProt P0A3G2 1-293) (enzyme)
